Where a chain is given by its changes, count along the chain named.
T1: recombinant human Nectin-4-His protein (human, UniProt Q96NY8 32-349)
T1 construct: Rescreening antigen and bought ELISA antigen are treated as one molecule; also called human Nectin-4-His tagged; Ag1; not shown: His tag
T1 sequence: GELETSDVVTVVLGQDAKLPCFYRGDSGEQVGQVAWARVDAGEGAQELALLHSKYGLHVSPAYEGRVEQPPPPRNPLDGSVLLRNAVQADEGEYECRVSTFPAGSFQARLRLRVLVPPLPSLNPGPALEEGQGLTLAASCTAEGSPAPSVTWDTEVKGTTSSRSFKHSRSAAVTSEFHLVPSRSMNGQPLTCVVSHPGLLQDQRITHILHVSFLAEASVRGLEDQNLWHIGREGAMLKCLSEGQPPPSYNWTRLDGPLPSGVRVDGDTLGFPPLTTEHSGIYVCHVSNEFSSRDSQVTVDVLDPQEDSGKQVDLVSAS

T2: human nectin-4 protein expressed on the surface of cells (human, UniProt Q96NY8 32-510)
T2 sequence: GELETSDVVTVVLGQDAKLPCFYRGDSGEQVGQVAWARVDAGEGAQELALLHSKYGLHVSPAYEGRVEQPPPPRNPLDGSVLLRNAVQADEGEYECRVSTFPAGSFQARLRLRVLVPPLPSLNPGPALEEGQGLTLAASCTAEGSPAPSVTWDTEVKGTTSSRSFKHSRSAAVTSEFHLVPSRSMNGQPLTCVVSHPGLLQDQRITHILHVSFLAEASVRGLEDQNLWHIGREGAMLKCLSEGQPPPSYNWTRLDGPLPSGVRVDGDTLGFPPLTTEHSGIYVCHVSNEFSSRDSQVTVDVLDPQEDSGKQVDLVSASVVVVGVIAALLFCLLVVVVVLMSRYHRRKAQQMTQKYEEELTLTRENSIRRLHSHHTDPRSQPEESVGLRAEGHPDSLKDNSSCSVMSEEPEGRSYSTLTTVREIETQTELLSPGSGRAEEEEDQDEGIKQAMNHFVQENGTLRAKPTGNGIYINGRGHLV

B1: Nectin-4 5D9 VH3/VL3 (antibody, V domains shown)
VH: QVQLQESGPGLVKPSETLSLTCTVSGGSITNYGVHWIRQPPGKGLEWLGVIWSGGSTDYNPSLKSRVTISVDTSKNQFSLKLSSVTAADTAVYYCARSGKWYYFDYWGQGTLVTVSS
VL: DIQMTQSPSSLSASVGDRVTITCRASQSIYSNLAWYQQKPGKAPKLLVYAATNLASGVPSRFSGSGSGTDFTLTISSLQPEDFATYYCQHFWGTPTFGGGTKVEIK
notes: Humanized; also called 5D9 VH variant 3 / 5D9 VL variant 3
B2: Nectin-4 5D9 VH3/VL5 (antibody, V domains shown)
VH: B1 VH
VL: B1 VL with A55Q
notes: Humanized; also called 5D9 VH variant 3 / 5D9 VL variant 5
B3: Nectin-4 5D9 VH5/VL2 (antibody, V domains shown)
VH: B1 VH with I29L, I37V, L48I, D58N, V71R, F78V
VL: B1 VL with R18T, S28N, P40Q, S56D, T74K, S76N
notes: Humanized; also called 5D9 VH variant 5 / 5D9 VL variant 2
B4: Nectin-4 5D9 VH5/VL3 (antibody, V domains shown)
VH: B1 VH with I29L, I37V, L48I, D58N, V71R, F78V
VL: B1 VL
notes: Humanized; also called 5D9 VH variant 5 / 5D9 VL variant 3
B5: Nectin-4 5D9 VH2/VL3 (antibody, V domains shown)
VH: B1 VH with G27F, P61A, K64V, V71R, N76S, S79F, S83N, T86Q, A88D, L112T
VL: B1 VL
notes: Humanized; also called 5D9 VH variant 2 / 5D9 VL variant 3
B6: Nectin-4 5D9 VH5/VL4 (antibody, V domains shown)
VH: B1 VH with I29L, I37V, L48I, D58N, V71R, F78V
VL: B1 VL with Q27E, S28N, S56D, F71Y
notes: Humanized; also called 5D9 VH variant 5 / 5D9 VL variant 4
B7: Nectin-4 5D9 VH2/VL5 (antibody, V domains shown)
VH: B1 VH with G27F, P61A, K64V, V71R, N76S, S79F, S83N, T86Q, A88D, L112T
VL: B1 VL with A55Q
notes: Humanized; also called 5D9 VH variant 2 / 5D9 VL variant 5
B8: Nectin-4 5D9 VH4/VL5 (antibody, V domains shown)
VH: B1 VH with E6Q, G27F, I29L, I37V, V67L, V71R, F78V, L80F, L82M
VL: B1 VL with A55Q
notes: Humanized; also called 5D9 VH variant 4 / 5D9 VL variant 5; Nectin-4 VH4/VL5
B9: Nectin-4 5D9 VH5/VL5 (antibody, V domains shown)
VH: B1 VH with I29L, I37V, L48I, D58N, V71R, F78V
VL: B1 VL with A55Q
notes: Humanized; also called 5D9 VH variant 5 / 5D9 VL variant 5
B10: Nectin-4 5D9 VH3/VL4 (antibody, V domains shown)
VH: B1 VH
VL: B1 VL with Q27E, S28N, S56D, F71Y
notes: Humanized; also called 5D9 VH variant 3 / 5D9 VL variant 4
B11: Nectin-4 5D9 VH3/VL2 (antibody, V domains shown)
VH: B1 VH
VL: B1 VL with R18T, S28N, P40Q, S56D, T74K, S76N
notes: Humanized; also called 5D9 VH variant 3 / 5D9 VL variant 2
B12: Nectin-4 5D9 VH4/VL3 (antibody, V domains shown)
VH: B1 VH with E6Q, G27F, I29L, I37V, V67L, V71R, F78V, L80F, L82M
VL: B1 VL
notes: Humanized; also called 5D9 VH variant 4 / 5D9 VL variant 3
B13: Nectin-4 5D9 VH1/VL1 (antibody, V domains shown)
VH: QVQLKESGPGLVQPSETLSLTCTVSGFSITNYGVHWIRQSPGKGLEWLGVIWSGGSTDYNAAFVSRVTISRDNSKSQVFFKLNSVQADDTAVYYCARSGKWYYFDYWGQGTTVTVSS
VL: DIQMTQSPASLSASVGDTVTITCRASQNIYSNLAWYQQKQGKSPQLLVYAATNLADGVPSRFSGSGSGTQYTLKINSLQSEDFGTYYCQHFWGTPTFGGGTKVEIK
notes: Humanized; also called 5D9 VH variant 1 / 5D9 VL variant 1
B14: Nectin-4 5D9 VH2/VL2 (antibody, V domains shown)
VH: B13 VH with K5Q, Q13K, S40P, A62S, F63L, N73T, V78F, F80L
VL: B1 VL with R18T, S28N, P40Q, S56D, T74K, S76N
notes: Humanized; also called 5D9 VH variant 2 / 5D9 VL variant 2
B15: Nectin-4 5D9 VH2/VL1 (antibody, V domains shown)
VH: B13 VH with K5Q, Q13K, S40P, A62S, F63L, N73T, V78F, F80L
VL: B13 VL
notes: Humanized; also called 5D9 VH variant 2 / 5D9 VL variant 1
B16: Nectin-4 5D9 VH1/VL2 (antibody, V domains shown)
VH: B13 VH
VL: B1 VL with R18T, S28N, P40Q, S56D, T74K, S76N
notes: Humanized; also called 5D9 VH variant 1 / 5D9 VL variant 2
B17: Nectin-4 5D9 VH4/VL1 (antibody, V domains shown)
VH: B1 VH with E6Q, G27F, I29L, I37V, V67L, V71R, F78V, L80F, L82M
VL: B13 VL
notes: Humanized; also called 5D9 VH variant 4 / 5D9 VL variant 1; Nectin-4 VH4/VL1
B18: Nectin-4 5D9 VH3/VL1 (antibody, V domains shown)
VH: B1 VH
VL: B13 VL
notes: Humanized; also called 5D9 VH variant 3 / 5D9 VL variant 1
B19: Nectin-4 5D9 VH1/VL3 (antibody, V domains shown)
VH: B13 VH
VL: B1 VL
notes: Humanized; also called 5D9 VH variant 1 / 5D9 VL variant 3
B20: Nectin-4 5D9 VH1/VL4 (antibody, V domains shown)
VH: B13 VH
VL: B1 VL with Q27E, S28N, S56D, F71Y
notes: Humanized; also called 5D9 VH variant 1 / 5D9 VL variant 4
B21: Nectin-4 5D9 VH2/VL4 (antibody, V domains shown)
VH: B13 VH with K5Q, Q13K, S40P, A62S, F63L, N73T, V78F, F80L
VL: B1 VL with Q27E, S28N, S56D, F71Y
notes: Humanized; also called 5D9 VH variant 2 / 5D9 VL variant 4
B22: Nectin-4 5D9 VH1/VL5 (antibody, V domains shown)
VH: B13 VH
VL: B1 VL with A55Q
notes: Humanized; also called 5D9 VH variant 1 / 5D9 VL variant 5

Experiments:
[1] = molecular target: T1, recombinant human Nectin-4-His protein; assay: ELISA, coated antigen
[2] = molecular target: T2, human nectin-4 protein expressed on the …; assay: cell-based or functional assay

Binder | EC50 [1] | Cell kill IC50, HekNectin4 [2] | Cell kill IC50, MDA-MB468 [2] | Cell kill IC50, SKBR3 [2]
B1 | 23.9 nM | 27.1 nM | 15.6 nM | 10.6 nM
B2 | 7.23 nM | 40 nM | 43.3 nM | 14.9 nM
B3 | 2.06 nM | 49.6 nM | 17.5 nM | 10.6 nM
B4 | 0.702 nM | 15.6 nM | 16.6 nM | 9.86 nM
B5 | 108 nM | 33.7 nM | 21.4 nM | 15.9 nM
B6 | 11.5 nM | 22.1 nM | 11 nM | 9.53 nM
B7 | 14.7 nM | 182 nM | 252 nM | 234 nM
B8 | 0.195 nM | 0.269 nM | 3.93 nM | 7.25 nM
B9 | 56.1 nM | 33.5 nM | 24 nM | 17.8 nM
B10 | 43600 nM | 41.1 nM | 40.5 nM | 26 nM
B11 | 8.62 nM | 54.8 nM | 17.7 nM | 15.3 nM
B12 | 0.204 nM | 0.333 nM | 3.71 nM | 6.46 nM
B13 | 0.225 nM | 0.249 nM | 1.42 nM | 15 nM
B14 | 172 nM | 55.5 nM | 19.3 nM | 14.4 nM
B15 | 0.279 nM | 3.93 nM | 21.4 nM | 14.7 nM
B16 | 0.368 nM | 3.35 nM | 10.3 nM | 9.85 nM
B17 | 0.212 nM | 0.182 nM | 1.08 nM | 3.85 nM
B18 | > 20 nM | 73.3 nM | 41.6 nM | 46.9 nM
B19 | 0.321 nM | 2.94 nM | 10.3 nM | 9.36 nM
B20 | 0.228 nM | 0.277 nM | 5.17 nM | 9.02 nM
B21 | 0.765 nM | 17.8 nM | 27 nM | 18.5 nM
B22 | 0.346 nM | 1.41 nM | 10.2 nM | 10.1 nM

From US20250101098A1 (R P SCHERER TECHNOLOGIES, published 2025)
